Measured values published in the supplement of paper PMC9170038.

Test system: MS2 coat protein
Test: apparent KD of MS2 coat protein; designed switch direction (-1 OFF switch, 1 ON switch): -1; higher = weaker reporter binding
In short: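 The reported apparent KD is a per-design median over clusters, from curve fits of normalised cluster fluorescence. Protein titrations used SNAP-549-labelled MS2 coat protein, doubled from 0.7 or 1.5 nM to 3 µM, in Tris-HCl pH 7.5 buffer with KCl, MgCl2, BSA, DTT, tRNA and Tween-20, with no input, 200 uM small-molecule ligand, or an oligonucleotide input. The RNA switches were transcribed on Illumina chips by stalled E. coli RNA polymerase.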

[1] = Eterna round: R95, input ligand: FMN 200 uM
[2] = Eterna round: R95, input ligand: microRNA oligo, concentration not stated
[3] = Eterna round: R95, input ligand: none
[4] = input ligand: microRNA oligo, concentration not stated

Row | Sequence | apparent KD of MS2 coat protein [1] [nM] | apparent KD of MS2 coat protein [2] [nM] | apparent KD of MS2 coat protein [3] [nM] | apparent KD of MS2 coat protein (input ligand: FMN 200 uM) [nM] | apparent KD of MS2 coat protein [4] [nM] | apparent KD of MS2 coat protein (input ligand: none) [nM]
1 | CUGGUCCGAGGAUAUAUUAAGUGAAACAUGAGGAUCACCCAUGUUAUUUAAUGGAUGUAAAUAGAAGGCGGACUAG [JL-ex5-3.12] (puzzle: Exclusion 5) | 29.9 | 37 | 42.8 |  |  | 
2 | AAAUAAUAGAUAAAAUAAAACAUGAGGAUCACCCAUGUGGGAUGUUGAGGGUGAAACAAGCUUUUUGCUCGUCUUAU (puzzle: Sensor v3, turn-off variant 1) | 105 | 502 | 139 |  |  | 
3 | AACCCUCGUCAAGGAUAUACAUAGAAAAGCUUGGUAGAAGGUGACAUGAGGAUCACCCAUGUAAAAGGCCUGUCCAUUCAGGCC [Isonce] (Eterna round: R96, puzzle: Exclusion NG 1) |  |  |  | 96.4 | 67.8 | 78.1
4 | UUUUAACAUGAGGAUCACCCAUGUGAGGAUAUCGUUAUUUAUAUUAAUAUUAAUAAAACGAGAAGGCACAUUUU [JMF 6] (puzzle: Exclusion 1) |  | 117 |  |  |  | 
5 | GUGUAGAUAGGAUAUACAUGAGGAUCACCCAUGUGAAUAAGAUAGAAUAAGAUAAAGUGUAGAAGGGUUAGUGU [Excluse me!!! 19 - Jieux - Exclusion 3] (puzzle: Exclusion 3) | 34.3 | 30.2 | 39.9 |  |  | 
6 | AGUCCUGGAGUUAGGAUAUGGCGUAUCGCUGCGCUUCAGAAGGGACUUGAGGAUCACCCAAGUAGCCGUGAGGG [salish99_bmod_ex4_r4_008] (Eterna round: R97, puzzle: Brourd's mod of Exclusion 4) |  |  |  | 81.7 |  | 82.4
7 | GGGCCACAUGAGGAUCACCCAUGUGAGGAUAUCAUGCUUCGUAGUAAACUACGAAGUGUGAGAAGGCACAAUGG [Omei Ex1 C9] (Eterna round: R97, puzzle: Exclusion 1) |  |  |  | 444 |  | 143
8 | UUCUGCACGCUGCGGUCCUACAUGAGGAUCACCCAUGUGGUCUGGUGGCGUGGGUCGCCGGACUUGGCUCGUCUUGG [salish99_S_TOV1_R5_049] (Eterna round: R97, puzzle: Sensor, turn-off variant 1) |  |  |  | 15.4 |  | 14.9
9 | AGCUAGAUAGGAUAUGCCCGGGAUAACAUGAGGAUCACCCAUGUGACCGAUUCAUGUCCUGCAGAAGGGUUUGGGA [Mod of ViennaUCT 7 - Jieux - Exclusion 5] (Eterna round: R97, puzzle: Exclusion 5) |  |  |  | 15.1 |  | 12.7
10 | GUAAUUAAUGUAGGAUAUGCAAGGCGAACCUAAGCAGAAGGACAUGAGGAUCACCCAUGUAUUGCGGUCUGCGUUCAGAUCGCU [salish99_ExNG1_r4_009] (Eterna round: R96, puzzle: Exclusion NG 1) |  |  |  |  | 15.4 | 
11 | GAGCCAUCGUGAGAUGGCUAAUAUACAUGAGGAUCACCCAUGUAGGAUAUCGAUUGCUUUGCAGUCGAGAAGGACAUGUUUAAU [JL ENG3 3.97] (Eterna round: R96, puzzle: Exclusion NG 3) |  |  |  | 67.4 | 26.7 | 33.7
12 | UUAUUAAUUAAUAUUAUAAGAUCACAUGAGGAUCACCCAUGUCAGGAUAUCAGCUCGAUUAGAGCUGAGAAGGGACAAAUAAUA [ExNG3/15-B1] (Eterna round: R96, puzzle: Exclusion NG 3) |  |  |  | 1450 | 157 | 268
13 | CAUGAGGUAGGAUAUACGAUAAUAUAGGGUAGAUAUAUAACACAUGAGGAUCACCCAUGUAGAAGGACCAGUAC [Mat - Exclusion 2 - Mod of my Tesla design - D68] (puzzle: Exclusion 2) | 95.7 | 35.9 | 34.4 |  |  | 
14 | ACAAGCUUUUGGAUUUUCAACAUGAGGAUCACCCAUGUUCGUCUUAUGCGAGUGCGAGUGCGGUGUACUCGUAUUAG [JL TOV1 3.86 sellena mod] (Eterna round: R97, puzzle: Sensor, turn-off variant 1) |  |  |  | 25.3 |  | 24.4
15 | CCCGAGGAAGGAUAUACAUGAGGAUCACCCAUGUGCGUUGGGACUGGCGUGGUCUUCAGUAGAAGGUCCGCGCC [Esdiza] (Eterna round: R97, puzzle: Exclusion 3) |  |  |  | 48.7 |  | 33.8
16 | UAAGGGUGCGUAGGAUAUCGCGGCCGAAUAAAGCGAGAAGGACGCCCUAAUGGGUCGUCCAACAUGAGGAUCACCCAUGUAUAC [Uslaarus] (Eterna round: R96, puzzle: Exclusion NG 1) |  |  |  | 55.4 | 31.2 | 41.5
17 | GCACGGAGUGUAGGAUAUCUGUGCGAUUAGCUCAGAGAAGGACAUGAGGAUCACCCAUGUGUGUUCCAAUACUCAAAUCCGUGC [Eli exng1 - 064] (Eterna round: R96, puzzle: Exclusion NG 1) |  |  |  | 710 | 55.4 | 52.1

Row | Sequence | apparent KD of MS2 coat protein [1] [nM] | apparent KD of MS2 coat protein [2] [nM] | apparent KD of MS2 coat protein [3] [nM] | apparent KD of MS2 coat protein (input ligand: FMN 200 uM) [nM] | apparent KD of MS2 coat protein [4] [nM] | apparent KD of MS2 coat protein (input ligand: none) [nM]
18 | ACAUGAGGAUCACCCAUGUGGACGUAAAGGCUCAUGUAGAGUGAGGAUAUGUGAGACGAACGAGAACAGAAGGCACAAGACAGG [Deportation 6 - Jieux - Exclusion NG 3] (Eterna round: R96, puzzle: Exclusion NG 3) |  |  |  | 15.7 | 16.7 | 19.9
19 | UGUCAGAUGGUAGGAUAUUCAUAUCGAGUGACCCUUUCAUAACAUGAGGAUCACCCAUGUCGGUGGGAGAAGGGCCGUAUGGUG [salish99_ExNG02_R04_030] (Eterna round: R96, puzzle: Exclusion NG 2) |  |  |  |  | 22.7 | 
20 | UUCUGCACGCUGCGGUCCUACAUGAGGAUCACCCAUGUGGUCUGGUGGCGUGGGUCGCCGGACUUGGCUCGUCUUGA [salish99_S_TOV1_R5_044] (Eterna round: R97, puzzle: Sensor, turn-off variant 1) |  |  |  | 18.2 |  | 19.1
21 | GGUUGGCGAGGAUAUACAUGAGGAUCACCCAUGUGAGAGAAAAAAGUGAGAACGAAAAGUAGAAGGCGCUGACG [salish99-ex3-25] (Eterna round: R96, puzzle: Exclusion 3) |  |  |  | 315 | 67.5 | 98.8
22 | GGGCGGCGGACCGUGGCUUUUUGCUCGUCUUAUGCUUCGACAUGAGGAUCACCCAUGUGGUGGUGGUCCGUUGUGGG [Grok-var2-13 mod JAL] (puzzle: Sensor v3, turn-off variant 2) | 18.4 | 15.5 | 20.8 |  |  | 
23 | CCUAUGUUAGGAUAUCGGCAUCCCGGGCAGGUAGCCAGGACCGAGAAGGGACAUGAGGAUCACCCAUGUCAAAU [Eternabot (Original) Solution 4] (Eterna round: R97, puzzle: Exclusion 4) |  |  |  | 15.9 |  | 19.1
24 | CUUCACCCACCAGAGCUCACCCACAUACCUACUCAGGUGACAUGAGGAUCACCCAUGUUUUUUGCCCGUCUUAUCUU [Vexebedi] (Eterna round: R96, puzzle: Sensor v3, turn-off variant 2) |  |  |  | 34.4 | 174 | 37.5
25 | AAGUACCGUCACGAUAGUGAUGGUACAACAAGCAGUGACACAUGAGGAUCACCCAUGUCCUCAAUUGCUCGUCUUAU [Sensor 3 - 76] (puzzle: Sensor v3, turn-off variant 2) | 179 | 383 | 156 |  |  | 
26 | UAUAACAGAGGAUAUGCGAAUAAAUAAAACUUUUUUUUUUAACAUGAGGAUCACCCAUGUAGAAGGCUGAUAUU [Ex2 #22] (Eterna round: R97, puzzle: Exclusion 2) |  |  |  | 28.5 |  | 51.6
27 | ACAUUCAGAGGAUAUGCGCAUAGAUAAGACUUUUUUUUUUAACAUGAGGAUCACCCAUGUAGAAGGCUGUAACC [Ex2 #48] (Eterna round: R97, puzzle: Exclusion 2) |  |  |  | 23.8 |  | 24.3
28 | AAAUAGUGAGGAUAUUAGUUGUACGUCAAUAGACGUAUAAGUGAGAAGGCACAUGAGGAUCACCCAUGUUCCAG [Omei Ex4 Mod of Mat's R95 mod of Omei v9] (Eterna round: R97, puzzle: Exclusion 4) |  |  |  | 48.4 |  | 22.2
29 | UAUUAGCAAGCAAGAUCCCACAUGAGGAUCACCCAUGUGCUCGUCUUAUAAGGUACUGUGACGAAAGUCACGGUACC [Sensor 3, v1 - 83] (puzzle: Sensor v3, turn-off variant 1) | 36.8 | 1080 | 38 |  |  | 
30 | CAUACACAUGAGGAUCACCCAUGUGAGGAUAUGCGUACGUUGUCCGUAGGCGACGUGCGCAGAAGGCGCGUGAG [JL-ex1-3.14 Eli mod] (puzzle: Exclusion 1) |  | 45.3 |  |  |  | 
31 | GUACUGACAGGAUAUACAUGAGGAUCACCCAUGUGCCUUAUCGCUACAAAAGUAGCGGGUAGAAGGGUCUGUAC [Omei Ex3 Model Bachelor's Dilema v19] (Eterna round: R97, puzzle: Exclusion 3) |  |  |  | 41.8 |  | 16.4
32 | CGGUACUGAGGAUAUACAUGAGGAUCACCCAUGUGUACUAGCUAGCGUACUGGCAUUAGUAGAAGGCGGUGCUG [JL-ex3-3.20 Brourd mod] (puzzle: Exclusion 3) | 19.8 | 11.5 | 13.2 |  |  | 
33 | GUUUUCAGACGGAGAUCCUACAUGAGGAUCACCCAUGUCUCACAAGCUUUUUGCUCGUCUUAUUCUCCUCUGUUCUC [Elimod 41 - Jieux - Sensor, turn-off variant 1] (Eterna round: R97, puzzle: Sensor, turn-off variant 1) |  |  |  | 23.8 |  | 26.1
